In paper PMC10126545 (2023):
“And” between values parts separate entries of the source, which are not always exact repeats. Equal values may be shown once.

Key:
Experiment in all cases: BLI
[1] = biological target: COBRA P1 HA N127D mutant, CHO expressed, for binding assays
[2] = biological target: T1, COBRA P1 HA wild type, CHO expressed, for binding assays (glycosylation at Asn127)
[3] = biological target: T1, COBRA P1 HA wild type, CHO expressed, …; remark: listed apart in the source

B1: Fab 1F8 (recombinant Fab of the P1-elicited mouse monoclonal antibody 1F8) (Fab, V domains shown)
VH: QVQLQQSGAELMKPGASVKISCKATGYTFSSYWIEWVKQRPGHGLEWIGEILPGSGRTNYDERFKGKATFTADTSSNTAYMQLSSLTSEDSAVYYCARPRIYGMDYWGQGTSVTVSS
VL: DIVLTQSPASLAVSLGQRATISCKASQSVDFDGDTYMSWYQQKPGQPPKLLIYAASKLESGIPARFSGSGSGTDFTLNIHPVEEEDAATYFCQQSNEDPWTFGGGTKLEIK
koff [1]: 0.000855 s⁻¹ | koff [2]: 0.000813 s⁻¹ | Kd [3]: 2.56 nM and 3.35 nM
